We go through 15 molecules from patent publication US20220195023A1.

Positions count from the first letter of the chain named.

The labels stand for the following.
B1: AB-007037 (antibody, V domains shown)
VH: QMQLVESGGGVVQPGRSLRLSCTASGFTFSTYAMHWVRQSPGQGLQWVAVISYHSTNKYYEDSVKGRFTISRDNSKNTLYLQMNSLRAEDTAVYYCARDGYSSSFFDFWGQGTLVTVSS
VL: DIQMTQSPSTLSASVGDRVAITCRASQSISRWLAWYQQQPGKAPKLLMSGASVLESGVPSRFSGSGSGTEFTLTISSLQPDDFATYYCQHYNSYFVTFGQGTKVEIK
B2: AB-007054 (antibody, V domains shown)
VH: B1 VH with K65R, S102A
VL: B1 VL
B3: AB-007041 (antibody, V domains shown)
VH: B1 VH with T31D, K65R
VL: B1 VL
B4: AB-007052 (antibody, V domains shown)
VH: B1 VH with T56N, K65R
VL: B1 VL
B5: AB-007042 (antibody, V domains shown)
VH: B1 VH with K65R
VL: B1 VL with S28D
B6: AB-007057 (antibody, V domains shown)
VH: B1 VH with K65R, S102H
VL: B1 VL
B7: AB-007051 (antibody, V domains shown)
VH: B1 VH with T56R, K65R
VL: B1 VL
B8: AB-007049 (antibody, V domains shown)
VH: B1 VH with Y53N, S55E, K65R
VL: B1 VL
B9: AB-007040 (antibody, V domains shown)
VH: B1 VH with K65R
VL: B1 VL with F95Y
B10: AB-007044 (antibody, V domains shown)
VH: B1 VH with D62E, K65R
VL: B1 VL
B11: AB-007039 (antibody, V domains shown)
VH: B1 VH with K65R
VL: B1 VL with F95S
B12: AB-007043 (antibody, V domains shown)
VH: B1 VH with K65R
VL: B1 VL with S56D
B13: AB-007046 (antibody, V domains shown)
VH: B1 VH with K65R
VL: B1 VL with N92Y
B14: AB-007047 (antibody, V domains shown)
VH: B1 VH with T31N, K65R
VL: B1 VL
B15: AB-007038 (antibody, V domains shown)
VH: B1 VH with K65R, F108Y
VL: B1 VL

The first assay concerns the target (NANP)6 (Plasmodium falciparum). The experiment in a line: BLI, target on sensor. In general terms: Biolayer interferometry detects binding as a change in optical thickness at a sensor tip.
Consider B1, for which the Kd (in general, the concentration at which binding is half-saturated) came to 0.384 nM.
The same measure, in the same setting: next, B2: 1.72 nM.
Still for that read-out and setting: next, B3: 0.47 nM.
Still for that read-out and setting: next, B4: 0.392 nM; B5: 0.0276 nM; B6: 0.976 nM.
Consider B7, for which the equilibrium dissociation constant (Kd) was 1.08 nM. The Kd values of the last two molecules are within 1.5-fold of each other.
Same read-out and setting: next, B8: 0.576 nM; B9: 0.56 nM; B10: 0.85 nM.
Still for that read-out and setting: next, B11: 1.19 nM.
The same measure, in the same setting: next, B12: 0.293 nM; B13: 2.58 nM.
For B14, the Kd turned out to be 1.32 nM. This Kd is about 2-fold lower than that of the molecule before.
Molecule B15 showed a dissociation constant (Kd) of 1.34 nM.

Another assay concerns the target (NPNA)3 (Plasmodium falciparum). The experiment in a line: BLI, target on sensor.
B1: the Kd was determined as 0.0035 nM.
Still for that read-out and setting: the value for B2 was 0.61 nM; that for B3 was 0.145 nM.
The same measure, in the same setting: next, B4: 0.0169 nM; B5: 0.00314 nM.
For B6, the Kd was found to be 0.311 nM.
With B7, the Kd came to 0.591 nM.
Same read-out and setting: the value for B8 was 0.326 nM.
Still for that read-out and setting: next, B9: 0.337 nM; B10: 0.239 nM; B11: 0.812 nM.
Same read-out and setting: next, B12: 0.00341 nM.
Take B13: the Kd is 1.57 nM. Against the preceding molecule, the Kd is about 460-fold higher.
The same measure, in the same setting: the value for B14 was 0.567 nM.
Same read-out and setting: next, B15: 0.544 nM.

A further assay concerns the target (NVDP)3(NANP)2 (Plasmodium falciparum). The experiment in a line: BLI, target on sensor.
B1: the Kd amounted to 4.44 nM.
Still for that read-out and setting: the value for B2 was 10.2 nM.
Turning to B3, the Kd worked out at 6.65 nM.
On to B4, for which the Kd came to 6.28 nM.
In turn, B5 had a Kd of 3.9 nM.
The same measure, in the same setting: next, B6: 11.2 nM; B7: 4.89 nM; B8: 13 nM.
B9 registered a Kd of 4.67 nM.
B10: the dissociation constant Kd is 5.99 nM.
Still for that read-out and setting: next, B11: 7.26 nM; B12: 5.2 nM; B13: 11.6 nM.
Still for that read-out and setting: the value for B14 was 8.11 nM; that for B15 was 5.82 nM.

A further assay has as its target NANPNVDP (Plasmodium falciparum). Description: BLI, target on sensor.
Molecule B1 displayed a Kd of 8.41 nM.
On to B2, for which the Kd came to 13.7 nM.
The same measure, in the same setting: next, B3: 12.1 nM; B4: 7.34 nM; B5: 8.56 nM.
Still for that read-out and setting: next, B6: 15.3 nM; B7: 6.57 nM; B8: 21.2 nM.
Still for that read-out and setting: next, B9: 9.56 nM; B10: 8.61 nM; B11: 15.3 nM.
As to B12, the dissociation constant (Kd) was determined as 10.4 nM.
Take B13: the Kd was 11.1 nM. The Kd values of the last two molecules are within 1.5-fold of each other.
On the same count and under the same terms, the value for B14 was 10 nM; that for B15 was 10.9 nM.

The target of a further assay is … (Plasmodium falciparum). Description: BLI, target on sensor.
Consider B1, for which the Kd was 2.47 nM. This lies in the single-digit nanomolar range.
The same measure, in the same setting: next, B2: 8.5 nM.
As to B3, the dissociation constant (Kd) came out at 5.57 nM.
The same measure, in the same setting: next, B4: 3.83 nM.
On the same count and under the same terms, the value for B5 was 2.99 nM; that for B6 was 10.5 nM.
In turn, B7 had a Kd of 3.23 nM. This Kd lies about 3.3-fold lower than the previous one.
B8 returned a Kd of 12.3 nM. This Kd is about 3.8-fold higher than that of the molecule before.
Same read-out and setting: the value for B9 was 4.17 nM; that for B10 was 3.47 nM; that for B11 was 7.97 nM.
Still for that read-out and setting: next, B12: 4.87 nM; B13: 9.15 nM; B14: 5.43 nM.
Same read-out and setting: the value for B15 was 3.81 nM.

In another assay the target is (NANP)6 (Plasmodium falciparum). Description: SPR, antibody on chip. (In general: Surface plasmon resonance follows binding to a sensor surface in real time, without labels.)
In turn, B1 yielded a Kd of 1.73 nM.
As to B2, the Kd was 0.0552 nM.
Still for that read-out and setting: the value for B3 was 0.246 nM; that for B4 was 0.0442 nM; that for B5 was 0.998 nM.
With B6, the Kd came out at 0.0419 nM.
Same read-out and setting: next, B7: 0.507 nM.
On the same count and under the same terms, next, B8: 0.092 nM; B9: 0.344 nM.
Same read-out and setting: next, B10: 0.139 nM; B11: 0.143 nM; B12: 1.11 nM.
B13 gave a Kd of 1.27 nM.
On the same count and under the same terms, next, B14: 0.156 nM; B15: 0.0281 nM.

The next assay deals with (NPNA)3 (Plasmodium falciparum). The experiment in a line: SPR, antibody on chip.
As for B1, the Kd turned out to be 7.14 nM.
The same measure, in the same setting: the value for B2 was 10.5 nM.
For B3, the Kd is 5.64 nM.
The same measure, in the same setting: the value for B4 was 6.31 nM.
On the same count and under the same terms, next, B5: 7.04 nM; B6: 40.3 nM; B7: 5.19 nM.
On the same count and under the same terms, the value for B8 was 25.8 nM.
In turn, B9 returned a dissociation constant Kd of 9.5 nM.
Same read-out and setting: the value for B10 was 7.96 nM; that for B11 was 112 nM; that for B12 was 7.51 nM.
Same read-out and setting: the value for B13 was 10.3 nM; that for B14 was 11.4 nM.
Consider B15, for which the Kd came to 8.97 nM.

The next assay deals with (NVDP)3(NANP)2 (Plasmodium falciparum). Description: SPR, antibody on chip.
As to B1, the Kd came out at 2690 nM.
The same measure, in the same setting: the value for B2 was 5670 nM; that for B3 was 3930 nM; that for B4 was 2560 nM.
For B5, the Kd turned out to be 2310 nM.
Take B6: the Kd was found to be 9090 nM.
Same read-out and setting: the value for B7 was 2490 nM.
With B8, the Kd amounted to 7140 nM.
Still for that read-out and setting: the value for B9 was 3110 nM.
Still for that read-out and setting: the value for B10 was 2240 nM; that for B11 was 8250 nM.
For B12, the Kd was determined as 2590 nM. Compared with the last molecule, the Kd is about 3.2-fold lower.
On the same count and under the same terms, next, B13: 2810 nM.
On the same count and under the same terms, next, B14: 3680 nM.
The same measure, in the same setting: next, B15: 3060 nM.

The target of a further assay is … (Plasmodium falciparum). The experiment in a line: SPR, antibody on chip.
In the case of B1, the Kd stood at 2240 nM.
Still for that read-out and setting: next, B2: 17600 nM.
On the same count and under the same terms, next, B3: 2520 nM.
Still for that read-out and setting: next, B4: 7140 nM.
Molecule B5 registered an equilibrium dissociation constant (Kd) of 11700 nM.
On the same count and under the same terms, next, B6: 20100 nM.
The same measure, in the same setting: next, B7: 8840 nM; B8: 2950 nM; B9: 3730 nM.
Same read-out and setting: the value for B10 was 12700 nM.
Turning to B11, the Kd was 14700 nM.
Same read-out and setting: the value for B12 was 16300 nM.
For the molecule B13, the Kd was 11600 nM.
The same measure, in the same setting: next, B14: 9370 nM.
Same read-out and setting: next, B15: 13100 nM.
